Assay results taken from patent US20140072980A1.

Experiments:
[1] = molecular target: IgG1 Fc/Fc monospecific antibody; assay: flow cytometry: antibody displayed on CHO cells by CSCP FcγR, detected with Anti-hFc
[2] = molecular target: IgG1 Fc/Fc* bispecific antibody; assay: as above

For “human FcγRI (from UniProt P12314 16-374) (receptor)”, the Mean Fluorescence Intensity (MFI) [1] was 1000 MFI and the Mean Fluorescence Intensity (MFI) [2] was 1800 MFI.
